Assay results: patent publication US20190225669A1 (ACCELERON PHARMA, published 2019)
Read-outs that look alike come from different tables or passages of the source.

T1: BMP6 (UniProt P22004 382-513, limits assumed)
T1 sequence (looked up): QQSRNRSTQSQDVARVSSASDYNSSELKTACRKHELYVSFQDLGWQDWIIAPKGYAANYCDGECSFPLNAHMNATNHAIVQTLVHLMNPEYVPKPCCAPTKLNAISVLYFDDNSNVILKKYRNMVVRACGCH

T2: BMP5 (UniProt P22003 317-454, limits assumed)
T2 sequence (looked up): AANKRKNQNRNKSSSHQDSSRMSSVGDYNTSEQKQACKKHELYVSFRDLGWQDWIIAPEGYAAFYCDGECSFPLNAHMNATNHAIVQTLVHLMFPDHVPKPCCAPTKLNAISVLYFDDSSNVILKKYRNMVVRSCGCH

T3: GDF5 (UniProt P43026 382-501)
T3 construct: also called BMP14
T3 sequence (looked up): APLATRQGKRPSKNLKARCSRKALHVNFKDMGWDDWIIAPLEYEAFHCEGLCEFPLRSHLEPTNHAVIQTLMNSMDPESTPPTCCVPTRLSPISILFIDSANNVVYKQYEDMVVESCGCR

T4: GDF7 (UniProt Q7Z4P5 322-450, limits assumed)
T4 construct: also called BMP12
T4 sequence (looked up): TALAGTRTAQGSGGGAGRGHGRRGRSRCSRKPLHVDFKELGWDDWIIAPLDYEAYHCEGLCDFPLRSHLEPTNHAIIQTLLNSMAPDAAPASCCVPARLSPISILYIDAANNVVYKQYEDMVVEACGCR

T5: BMP7 (UniProt P18075 293-431)
T5 sequence (looked up): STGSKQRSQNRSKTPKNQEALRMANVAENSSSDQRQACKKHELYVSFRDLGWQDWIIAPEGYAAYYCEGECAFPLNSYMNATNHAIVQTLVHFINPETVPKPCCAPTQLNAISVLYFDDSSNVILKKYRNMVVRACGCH

T6: BMPRII-Fc homodimer (UniProt Q13873 27-150)
T6 construct: extracellular domain
T6 sequence (looked up): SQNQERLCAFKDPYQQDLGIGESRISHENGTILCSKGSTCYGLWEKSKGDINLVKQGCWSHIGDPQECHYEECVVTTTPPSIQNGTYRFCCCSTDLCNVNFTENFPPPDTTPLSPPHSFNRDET

B1: ActRIIB-Fc homodimer (Fc fusion, UniProt Q13705 19-137, looked up, not shown: a dimerising Fc or GST)
chain: SGRGEAETRECIYYNANWELERTNQSGLERCEGEQDKRLHCYASWRNSSGTIELVKKGCWLDDFNCYDRQECVATEENPQVYFCCCEGNFCNERFTHLPEAGGPEVTYEPPPTAPTLLT
notes: extracellular domain; also called ActRIIB homodimer
B2: GDF6 (ligand, UniProt Q6KF10 336-455, looked up)
chain: TAFASRHGKRHGKKSRLRCSKKPLHVNFKELGWDDWIIAPLEYEAYHCEGVCDFPLRSHLEPTNHAIIQTLMNSMDPGSTPPSCCVPTKLTPISILYIDAGNNVVYKQYEDMVVESCGCR
notes: also called BMP13
B3: BMP2 (ligand, UniProt P12643 283-396, looked up)
chain: QAKHKQRKRLKSSCKRHPLYVDFSDVGWNDWIVAPPGYHAFYCHGECPFPLADHLNSTNHAIVQTLVNSVNSKIPKACCVPTELSAISMLYLDENEKVVLKNYQDMVVEGCGCR

Columns and labels:
[1] = biological target: T1, BMP6; assay: Biacore SPR
Experimental: (§1) Ligands were injected and allowed to flow over the captured receptor protein.

[2] = biological target: T1, BMP6; assay: Biacore SPR; remark: listed apart in the source
Experimental: as §1

[3] = biological target: T2, BMP5; assay: Biacore SPR
Experimental: as §1

[4] = biological target: T1, BMP6; assay: Biacore SPR; remark: listed apart in the source
Experimental: as §1

[5] = biological target: T3, GDF5; assay: Biacore SPR; kinetics indeterminate (transient)
Experimental: as §1

[6] = biological target: T4, GDF7; assay: Biacore SPR; kinetics indeterminate (transient)
Experimental: as §1

[7] = biological target: T5, BMP7; assay: Biacore SPR
Experimental: as §1

[8] = biological target: T1, BMP6; assay: Biacore SPR; remark: listed apart in the source
Experimental: as §1

[9] = biological target: T2, BMP5; assay: Biacore SPR; remark: listed apart in the source
Experimental: as §1

[10] = biological target: B2; assay: Biacore SPR
Experimental: as §1

[11] = biological target: T5, BMP7; assay: Biacore SPR; remark: listed apart in the source
Experimental: as §1

[12] = biological target: T3, GDF5; assay: Biacore SPR
Experimental: as §1

[13] = biological target: T2, BMP5; assay: Biacore SPR; remark: listed apart in the source
Experimental: as §1

[14] = biological target: T7, ALK3-Fc homodimer (UniProt P36894 24-152); assay: Biacore SPR
T7 construct: extracellular domain
T7 sequence (P36894 24-152): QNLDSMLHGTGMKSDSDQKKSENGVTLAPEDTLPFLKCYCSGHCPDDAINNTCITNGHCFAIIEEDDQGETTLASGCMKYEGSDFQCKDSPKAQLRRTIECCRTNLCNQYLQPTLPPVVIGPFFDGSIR
Experimental: as §1

[15] = biological target: T6, BMPRII-Fc homodimer; assay: Biacore SPR; kinetics indeterminate (transient)
[16] = biological target: T7, ALK3-Fc homodimer; assay: Biacore SPR; remark: listed apart in the source
Experimental: as §1

## B1
[1]
  Kd: 1.1 nM
  koff: 0.007 s⁻¹
  kon: 6.4e+06 M⁻¹ s⁻¹
[2]
  Kd: 0.16 nM
  koff: 0.0039 s⁻¹
  kon: 2.4e+07 M⁻¹ s⁻¹
[3]
  Kd: 2.9 nM
  koff: 0.075 s⁻¹
  kon: 2.6e+07 M⁻¹ s⁻¹
[4]
  Kd: 0.19 nM
  koff: 0.0068 s⁻¹
  kon: 3.2e+07 M⁻¹ s⁻¹
[5]
  Kd: > 9.6 nM
[6]
  Kd: > 12 nM
[7]
  Kd: 1.6 nM
  koff: 0.014 s⁻¹
  kon: 8.8e+06 M⁻¹ s⁻¹
[8]
  Kd: 0.19 nM
  koff: 0.0068 s⁻¹
  kon: 3.5e+07 M⁻¹ s⁻¹
[9]
  Kd: 2.9 nM
  koff: 0.075 s⁻¹
  kon: 2.6e+07 M⁻¹ s⁻¹
[10]
  Kd: 39 nM
  koff: 0.0057 s⁻¹
  kon: 150000 M⁻¹ s⁻¹
[11]
  Kd: 1.6 nM
  koff: 0.014 s⁻¹
  kon: 8.8e+06 M⁻¹ s⁻¹
[12]
  Kd: 1.1 nM
  koff: 0.0014 s⁻¹
  kon: 1.2e+06 M⁻¹ s⁻¹
[13]
  Kd: 9.7 nM
  koff: 0.037 s⁻¹
  kon: 3.8e+06 M⁻¹ s⁻¹

## B2
[14]
  Kd: 40 nM
  koff: 0.0013 s⁻¹
  kon: 34000 M⁻¹ s⁻¹
[15]
  Kd: > 88 nM
[16]
  Kd: 40 nM
  koff: 0.0013 s⁻¹
  kon: 34000 M⁻¹ s⁻¹

## B3
[15]
  Kd: > 2000 nM
